T1: MAT CR12 (Homo sapiens, UniProt Q9Y5Y6)
T1 construct: termed MAT CR12 (ST14 CR12), amino acids 452-524; made in house; host or cells: E. coli BL21(DE3) CodonPlus-RIPL, pET30(+)a
T1 sequence (Q9Y5Y6 452-524): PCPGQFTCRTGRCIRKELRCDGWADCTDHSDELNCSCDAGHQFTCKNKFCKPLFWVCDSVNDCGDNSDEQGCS

T2: MAT CR23 (Homo sapiens, UniProt Q9Y5Y6)
T2 construct: made in house; host or cells: E. coli BL21(DE3) CodonPlus-RIPL, pET30(+)a
T2 sequence (Q9Y5Y6 487-566): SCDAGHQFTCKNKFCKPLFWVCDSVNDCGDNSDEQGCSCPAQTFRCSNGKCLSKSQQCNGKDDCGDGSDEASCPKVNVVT

B1: mRAPc: minimized RAP d3, E241C, A242G, R314G, I315C, disulfide-cyclized, N-terminal biotin-GGSGG (SEQ ID NO: 99) (peptide)
chain: CGFREELKHFEAKIEKHNHYQKQLEIAHEKLRHAESVGDGERVSRSREKHALLEGRTKELGYTVKKHLQDLSGGC
modifications: disulfide cyclization; N-terminal biotin-GGSGG
B2: MatRAP2: RAP d3 variant selected on MAT CR34: S232P, E239G, E246G, E251L, K256P, I266T, A267V, H268R, K270P, H273Y, R287H, H290Y, K298R, S312F (protein)
chain: LDRLRRVSHQGYSTEAEFEEPRVIDLWDLAQPANLTDKGLEAFREGLKHFLAKIEPHNHYQKQLETVREPLRYAESVGDGERVSRSHEKYALLEGRTRELGYTVKKHLQDLFGRISRAR
B3: VRAP1 d3: RAP d3 variant selected on VLDLR CR6-8: R205S, E251R, K256L, K270E, R296L, G313D (protein)
chain: LDRLSRVSHQGYSTEAEFEEPRVIDLWDLAQSANLTDKELEAFREELKHFRAKIELHNHYQKQLEIAHEELRHAESVGDGERVSRSREKHALLEGLTKELGYTVKKHLQDLSDRISRAR
B4: MatRAP1: RAP d3 variant selected on MAT CR23: E251G, K256R, K270W (protein)
chain: LDRLRRVSHQGYSTEAEFEEPRVIDLWDLAQSANLTDKELEAFREELKHFGAKIERHNHYQKQLEIAHEWLRHAESVGDGERVSRSREKHALLEGRTKELGYTVKKHLQDLSGRISRAR
B5: MatRAP1 N-42: MatRAP1 with 42 amino acids removed from the N-terminus (protein)
chain: FREELKHFGAKIERHNHYQKQLEIAHEWLRHAESVGDGERVSRSREKHALLEGRTKELGYTVKKHLQDLSGRISRAR

Legend:
[1] = system: LRP-deficient CHO-K1 cells; assay: Endocytosis-dependent toxicity assay (MTT); assay type: cell-based, Chinese hamster; conditions: 100 nM, 48 hours
Experimental: (§1) In order to determine the ability of the cyclic RAP peptides to bind receptor on the surface of a cell, binding was assessed in the presence of cultured cell lines. To determine whether cyclic RAP peptides could be bound and endocytosed by full-length LRP1 expressed on cells in culture, an endocytosis-dependent toxicity assay was used. Two cell-lines were used, Chinese hamster ovary CHO-K1 cells expressing only one high-affinity RAP-receptor, LRP1, and a mutant CHO-K1 lacking LRP1 expression was used as control. Cells were cultured in BioWhittaker UltraCHO medium (Lonza, Basel, Switzerland) supplemented with 2.5% fetal bovine serum. Cells were seeded in 12-well tissue culture plates. The biotinylated mRAPc was combined with equimolar amounts of a conjugate between streptavidin and the bacterial toxin saporin (ZAP, Advanced Targeting Systems, San Diego, Calif.). The mixture was diluted in MEM without phenol red (Mediatech, Manassas, Va.) supplemented with 10% FBS to 100 nM. Conjugated mRAPc (100 nM) and control agents (mRAPc alone, 100 nM, streptavidin-saporin alone, 100 nM, saporin alone, 1 mM) were cultured with confluent cells and cell death was assayed 48 hours later via MTT assay (Invitrogen, San Diego, Calif.).

[2] = system: wild-type CHO-K1 cells expressing LRP1; assay: Endocytosis-dependent toxicity assay (MTT); assay type: cell-based, Chinese hamster; conditions: 100 nM, 48 hours
Experimental: as §1

[3] = biological target: T1, MAT CR12; assay: Solid phase binding assay; conditions: 80 nM ligand, FIG. 7
Experimental: (§2) All expression constructs were sequenced to verify insert sequences and the junctions with the expression vector. Each plasmid was then used to transform BL21(DE3) CodonPlus-RIPL™ cells (Stratagene). Expression of the CR proteins was induced in logarithmic growth-phase cells grown in LB supplemented with 34 μg/mL chloramphenicol, 12.5 μg/mL tetracycline and 15 μg/mL kanamycin by addition of 2 mM IPTG, followed by reduction in incubator temperature to 32° C. and incubation for 4 hours with agitation at […]. Cells were pelleted and resuspended, at 3.5% of the initial culture volume in 10 mM Tris-HCl pH 8, 100 mM NaH2PO4, 8M Urea. Resuspended cells were then frozen in liquid nitrogen, rapidly thawed to 37° C. and sonicated for 10 seconds at an amplitude setting of 60 using a Cole-Parmer CP-130 ultrasonic processor connected to a 3 mm probe. This procedure was repeated three times to effect complete lysis of the cells. Lysates were clarified by spinning twice at 10,000×g in a Sorvall RC-5 centrifuge for 20 minutes at 15° C. Ni-NTA columns (Qiagen Superflow™, 1.5 mL packed bed) were used to purify the CR proteins. Briefly, the resin was equilibrated with two column volumes of lysis buffer. The clarified lysate was then supplemented to 20 mM with imidazole and incubated with the equilibrated Ni-NTA resin overnight at 4° C. The flow-through was discarded. Columns were washed once with one column volume of lysis buffer and then three times with one column volume of TBS pH 8 supplemented with 20 mM imidazole. CR-loaded beads were then removed from the column and CR proteins eluted by incubating at room temperature for 30 minutes with one column volume of the same buffer containing 200 mM imidazole. This step was repeated once and the eluates pooled. Eluted CR protein solutions were then supplemented to 2 M urea, 10 mM CaCl2 and 5 mM DTT. Purified, denatured CR protein solutions were transferred to 3,500 MWCO Slide-A-Lyzer™ (Pierce) cassettes and sequentially dialyzed against a 200-fold excess of 50 mM Tris-HCl pH 8.5, 10 mM CaCl2, 1 mM reduced glutathione, 0.5 mM oxidized glutathione at room temperature overnight and then against TBS supplemented with 5 mM CaCl2 at 4° C. overnight. Protein concentrations were determined by Bradford assay and purity confirmed by SDS-PAGE with Coomassie Brilliant Blue staining.
(§3) Purified, refolded CR protein (1 μg) was bound to Nunc Maxisorp™ 96-well plates in TBS pH 8 supplemented with 5 mM CaCl2 (TBSC) overnight at 4° C. Wells were washed with TBSC and then blocked with TBSC containing 2% bovine serum albumin (BSA). RAP ligands were then incubated with the immobilized receptor at a range of concentrations for 2 hours in the above blocking buffer supplemented with 0.05% Tween-20 at room temperature. Control wells contained no added ligand. As an additional control, to determine whether the absence of calcium affected binding, 10 mM EGTA was included in the incubation medium for some samples. Wells were washed with TBSTC and bound ligands detected with polyclonal anti-RAP (BP41/42, 1:1,000, BioMarin). Excess primary antibody was removed and wells washed before incubation with the secondary antibody, HRP-conjugated goat anti rabbit IgG (Bio-Rad). After washing, TMB substrate solutions (Bio-Rad) were added to detect HRP. Color development was stopped with 1N HCl. Absorption at 450 nm was measured with a microplate spectrophotometer (Molecular Devices). Data were plotted and Kd values derived by non-linear regression with the assumption of single-site binding (GraphPad Prism).
(§4) From the large number of CR pairs with unique combinations of amino acids at A, C, A′ and C′ within the calcium-binding loop of each CR, CR pairs or triplets were selected to test their binding to RAP d3 (FIG. 2). An additional pair derived from the FDC-8D6 protein was tested, designated 8D6 CR12, having the sequence ([…]) (SEQ ID NO: 91). […]

[4] = biological target: T2, MAT CR23; assay: Solid phase binding assay; conditions: 80 nM ligand, FIG. 7
Experimental: as §2, §3, §4

[5] = system: the other CR pairs; assay: Binding at 80 nM to fourteen CR pairs or triplets (FIG. 7); set-up: species or system human; conditions: 80 nM ligand
Experimental: RAP d3, MegaRAP1 d3, VRAP2 d3, MatRAP1 d3 and MatRAP2 d3 were each incubated at 80 nM concentrations with LRP1 CR3-5, LRP6 CR12, LRP6 CR23, LRP6 CR1-3, LRP2 CR89, LRP2 CR2728, LRP2 CR3031, LRP2 CR3435, LRP2 CR34-36, VLDLR CR78, VLDLR CR6-8, MAT CR12, MAT CR23 and MAT CR34. Samples were tested twice, in duplicate, and values combined. Means and standard deviations were then calculated. Blank values obtained from wells incubated in the absence of ligand were used to correct absorbance data.
Purified, refolded CR protein (1 μg) was bound to Nunc Maxisorp™ 96-well plates in TBS pH 8 supplemented with 5 mM CaCl2 (TBSC) overnight at 4° C. Wells were washed with TBSC and then blocked with TBSC containing 2% bovine serum albumin (BSA). RAP ligands were then incubated with the immobilized receptor at a range of concentrations for 2 hours in the above blocking buffer supplemented with 0.05% Tween-20 at room temperature. Control wells contained no added ligand. […] Wells were washed with TBSTC and bound ligands detected with polyclonal anti-RAP (BP41/42, 1:1,000, BioMarin). […] Absorption at 450 nm was measured with a microplate spectrophotometer (Molecular Devices). […]
The apparent dissociation constant for binding of VRAP1 d3 to VLDLR CR78 was determined to be 44±9 nM. […]

[6] = biological target: T3, VLDLR CR78 (Homo sapiens, UniProt P98155); assay: Solid phase binding assay
T3 construct: a CR pair from VLDLR (CR78); made in house; host or cells: E. coli BL21(DE3) CodonPlus-RIPL, pET30(+)a
Experimental: as §2, §3, §4

[7] = biological target: T4, VLDLR CR6-8 (Homo sapiens, UniProt P98155); assay: Solid phase binding assay; conditions: 80 nM ligand, FIG. 7
T4 construct: made in house; host or cells: E. coli BL21(DE3) CodonPlus-RIPL, pET30(+)a
Experimental: as §2, §3, §4

[8] = biological target: T2, MAT CR23; assay: Binding of sequentially-truncated MatRAP1 (FIG. 9)
Experimental: as §3, with “Prism). […]” for “Prism).”

Row | Molecule | binding at 80 nM (in words) [3] | binding at 80 nM (in words) [4] | binding at 80 nM to the other CR pairs (in words) [5] | also measured
1 | B1 | – | – | – | effect on cell survival (in words) [1]: no effect; effect on cell survival (in words) [2]: no effect
2 | B2 | bound | bound | not appreciably | –
3 | B3 | – | – | – | binding at 80 nM (in words) ([6]; 80 nM ligand, FIG. 7): bound; Kd ([6]; solid-phase assay, VLDLR CR78, read-out: apparent dissociation constant (Kd)): 44 ± 9 nM; binding at 80 nM (in words) [7]: bound
4 | B4 | bound | bound | not appreciably | –
5 | B5 | – | – | – | increase in binding affinity over the full-length d3 variant [8]: 3 fold

Reference: patent publication US8440629B2, “Cyclic receptor-associated protein (RAP) peptides” (Raptor Pharmaceuticals Inc., priority 2007, dated 2013)
